The target of assay [1] is Fc-tagged SARS-CoV-2 receptor-binding domain (RBD), wild type (SARS-CoV-2) (UniProt P0DTC2). Description: BLI; Fc-tagged RBD (20 ug/ml) loaded on anti-hIgG Fc Capture (AHC) biosensors, Fab in solution at four to five concentrations; Octet Red96e, room temperature, 1x kinetics buffer (1x PBS pH 7.4, 0.01% w/v BSA, 0.002% v/v Tween 20); 1:1 binding model. Background: BLI is a label-free optical method that tracks binding on a fibre tip over time.

The target in assay [2] is Fc-tagged SARS-CoV-2 spike receptor-binding domain (RBD) (SARS-CoV-2) (UniProt P0DTC2). The assay can be described thus: BLI; Fc-tagged RBD (20 ug/ml) loaded on anti-hIgG Fc Capture (AHC) biosensors, Fab in solution; room temperature; 1x PBS pH 7.4, 0.01% BSA, 0.002% Tween 20; 1:1 binding model.

Turning to COVD21-C8 F58Y Fab, the Kd (in general, the concentration at which binding is half-saturated) in assay [1] was greater than 1000 nM.

The substance “COVD21-C8 Fab, Y58 variant (heavy chain F58Y)” came in with a Kd in assay [2] of 2000 nM.

The values above are taken from article PMC8217500.
